Results on 8 molecules are retold here after patent US20120237528A1 (Janssen / Centocor, published 2012).

Experiment [1] deals with T1, recombinant extracellular domain (ECD) of human TF, amino acid 1-219 of the mature chain, C-terminal His6-tag (human, UniProt P13726 33-251).
T1 construct: expressed in a mammalian system; used for ELISA and Biacore; biotinylated by NHS-ester for the Fab ELISA; also called His6-TF-ECD1-219; HumanTF1-219
Kind of experiment: Biacore.

Experiment [2] concerns the target T2, Cynomolgous monkey (cyno) TF-ECD with His Tag (cynomolgus monkey, UniProt P13726 33-251 (human entry)).
T2 construct: also called cyno antigen
T2 chain: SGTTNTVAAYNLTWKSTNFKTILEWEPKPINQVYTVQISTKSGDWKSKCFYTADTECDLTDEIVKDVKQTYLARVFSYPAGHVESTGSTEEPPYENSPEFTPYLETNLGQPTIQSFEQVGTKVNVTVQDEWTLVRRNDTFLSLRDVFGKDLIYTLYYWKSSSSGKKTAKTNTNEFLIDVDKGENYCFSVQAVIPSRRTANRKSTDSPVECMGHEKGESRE
Kind of experiment: Biacore.

The target of experiment [3] is T1, recombinant extracellular domain (ECD) …. Kind of experiment: Biacore. This is another data set of the same source.
Experiment [4] addresses T3, endogenous human tissue factor on MDA-MB-231 breast cancer cells (human, UniProt P13726 33-295). The experiment is described as follows: cell-based or functional assay.
The target of experiment [5] is Innovin, lyophilized recombinant human tissue factor combined with phospholipids (human, UniProt P13726 33-295, limits assumed). The experiment is described as follows: cell-based or functional assay.
Experiment [6] deals with T3, endogenous human tissue factor on …. The experiment is described as follows: cell-based or functional assay. The source holds these as a separate data set.
Experiment [7] shares this target. The experiment is described as follows: FACS on MDA-MB-231 cells. The method, then: This assay is used to detect the direct binding of antibody to endogenouse human TF expressed in breast cancer cells. Prepare four point titrations of the test mAbs in FACS buffer (1% FBS in PBS) in duplicate. Start a titration at 1,000 ng/ml with 1:4 dilutions. […] Unstained cells and secondary antibody, Cy-5 conjugated Goat anti-Human IgG Fc antibody in FACS buffer 1:200, is used as controls and prepared immediately before use.
Using standard tissue culture technique, rinse adherent MDA-MB-231 cells in culture flask with once with PBS (w/o Ca+2/Mg+2). Lift cells with Versene and count the cells and seed 200,000 cells per well in a polystyrene V-bottom plate. FACS Analysis Protocol: Tissue Factor Binding. Pellet the cells in a Allegra X-15R centrifuge at 450×g for 3 minutes at 4° C., resuspend in FACS Buffer (2% FBS in PBS) and plate 200,000 cells per well in 200 uL. Pellet cells at 450×g for 3 minutes at 4° C. Discard supernatants and add 100 uL/well test or control mAbs to designated wells and incubate on ice or at 4° C. for 1 hour (+/−10 minutes). Pellet cells at 450×g for 3 minutes at 4° C. Discard supernatants and wash cells once in FACS buffer. Resuspend cells in 200 uL/well FACS buffer and pellet cells at 450×g for 3 minutes at 4° C. Discard supernatants and add 100 uL/well secondary antibody to designated wells (triterate), and incubate on ice for 1 hour (+/−10 minutes). Pellet cells at 450×g for 3 minutes at 4° C. Discard supernatants and wash cells 2 times in FACS buffer before resuspending the cells in 200 uL/well FACS Buffer (triterate). Pellet cells at 450×g for 3 minutes at 4° C. Discard supernatant and resuspend cells in 100 uL/well CytoFix Buffer. Analyze reactions by flow cytometry (BD FACSArray). The FlowJo Software is used for FACS data analysis by gating the main population of cells in the unstained control well and applying the gate to the whole data set. The data is exported as a table of the geometric mean fluorescence intensity (MFI) in the red channel for the applied gate.

The target of experiment [8] is T1, recombinant extracellular domain (ECD) …. The experiment is described as follows: TF-ECD binding ELISA, chemiluminescent.
The target of experiment [9] is T2, Cynomolgous monkey (cyno) TF-ECD with …. Kind of experiment: TF-ECD binding ELISA, chemiluminescent.
For experiment [10], the target named is T3, endogenous human tissue factor on …. The experiment is described as follows: cell-based or functional assay. The source holds these as a separate data set.

Read-outs that look alike come from different tables or passages of the source.

B1: M16 (antibody, V domains shown)
VH: QVQLVQSGAEVKKPGASVKVSCKASGYTFITYWIEWVRQAPGQGLEWMGDILPGSGSTNYNENFKGRVTMTRDTSTSTVYMELSSLRSEDTAVYYCARSGYYGNSGFAYWGQGTLVTVSS
VL: DIVMTQSPDSLAVSLGERATINCKSSQSLLSSGNQKNYLTWYQQKPGQPPKLLIYWASTRESGVPDRFSGSGSGTDFTLTISSLQAEDVAVYYCQNDYTYPLTFGQGTKLEIK
notes: complete MAb; FR4 is its own entry; also called H16/L2
For the molecule B1, the equilibrium dissociation constant (Kd) in experiment [1] amounted to 0.66 nM; in experiment [2] it was 1.96 nM; in experiment [3] it was 0.66 nM. The koff in experiment [3] worked out at 6.7e-05 s⁻¹. The kon in [3] amounted to 102000 M⁻¹ s⁻¹. For the same molecule, the “IL-8 Induction, Ave % inhibition” value in [4] was determined as 109%. In addition, in experiment [5], the “T½ Max (seconds), coagulation of human plasma” value (shortened to “T½ Max (seconds), coagulation”) was determined as 198 s. In addition, in experiment [6], the “% IL-8 Inhibition” value came to 98.3%. Moreover, the “Whole Cell Binding, Ave %” value in experiment [7] was 109%. The 50% effective concentration (EC50) in experiment [8] was 0.00931 µg/mL; in experiment [9], 0.0234 µg/mL.

B2: M11 (antibody, V domains shown)
VH: EVQLVQSGAEVKKPGESLRISCKGSGYTFITYWIEWVRQMPGKGLEWMGDILPGSGSTNYNENFKGHVTISADKSISTAYLQWSSLKASDTAMYYCARSGYYGNSGFAYWGQGTLVTVSS
VL: DIVMTQSPLSLPVTPGEPASISCKSSQSLLSSGNQKNYLTWYLQKPGQSPQLLIYWASTRESGVPDRFSGSGSGTDFTLKISRVEAEDVGVYYCQNDYTYPLTFGQGTKLEIK
notes: complete MAb; FR4 is its own entry; also called H15/L4
For B2, the figures for the Kd in experiment [1], in experiment [2] and in experiment [3] were 0.37 nM, 1.52 nM and 0.36 nM, respectively. The “IL-8 Induction, Ave % inhibition” value in experiment [4] came to 93%. For the same molecule, the “T½ Max (seconds), coagulation” value in experiment [5] turned out to be 195 s. In [6], the “% IL-8 Inhibition” value stood at 87.9%. The “Whole Cell Binding, Ave %” value in [7] came to 114%. The EC50 in experiment [8] is 0.00994 µg/mL; in experiment [9], 0.0187 µg/mL.

B3: M9 (antibody, V domains shown)
VH: EVQLVQSGAEVKKPGESLRISCKGSGYTFITYWIEWVRQMPGKGLEWMGDILPGSGSTNYNENFKGHVTISADKSISTAYLQWSSLKASDTAMYYCARSGYYGNSGFAYWGQGTLVTVSS
VL: DIVMTQSPDSLAVSLGERATINCKSSQSLLSSGNQKNYLTWYQQKPGQPPKLLIYWASTRESGVPDRFSGSGSGTDFTLTISSLQAEDVAVYYCQNDYTYPLTFGQGTKLEIK
notes: complete MAb; FR4 is its own entry; also called H15/L2
Turning to B3, the Kd in experiment [1] was determined as 0.61 nM; in [2], 1.55 nM; in experiment [3], 0.61 nM. Moreover, the koff in experiment [3] was 5.9e-05 s⁻¹. The kon in [3] is 97300 M⁻¹ s⁻¹. Besides, in experiment [4], the “IL-8 Induction, Ave % inhibition” value stood at 106%. Moreover, in [5], the “T½ Max (seconds), coagulation” value was 198 s. In addition, the “% IL-8 Inhibition” value in [6] is 103%. For the same molecule, the “Whole Cell Binding, Ave %” value in experiment [7] turned out to be 107%. The EC50 in experiment [8] was 0.0098 µg/mL; in experiment [9] it was 0.0199 µg/mL.

B4: M58 (antibody, V domains shown)
VH: EVQLVQSGAEVKKPGESLRISCKGSGYTFITYWIEWVRQMPGKGLEWMGDILPGSGSTNYSPSFQGHVTISADKSISTAYLQWSSLKASDTAMYYCARSGYYGNSGFAYWGQGTLVTVSS
VL: DIVMTQSPDSLAVSLGERATINCKSSQSLLSSGNQKNYLTWYQQKPGQPPKLLIYWASTRESGVPDRFSGSGSGTDFTLTISSLQAEDVAVYYCQNDYTYPLTFGQGTKLEIK
notes: complete MAb; FR4 is its own entry; also called H22/L2
On to B4, for which the dissociation constant Kd in experiment [1] was 0.2 nM; in experiment [2] it was 1.18 nM; in experiment [3] it was 0.19 nM. Further, the koff in experiment [3] was 1.8e-05 s⁻¹. Moreover, the kon in experiment [3] amounted to 94800 M⁻¹ s⁻¹. Further, the “IL-8 Induction, Ave % inhibition” value in experiment [4] amounted to 106%. Besides, the “T½ Max (seconds), coagulation” value in experiment [5] was found to be 192 s. Moreover, the “% IL-8 Inhibition” value in experiment [6] stood at 88.5%. For the same molecule, the “Whole Cell Binding, Ave %” value in experiment [7] is 94%. In addition, the results for the EC50 in experiment [8] and in experiment [9] were 0.00903 µg/mL and 0.0198 µg/mL, respectively.

B5: M12 (antibody, V domains shown)
VH: EVQLVQSGAEVKKPGESLRISCKGSGYTFITYWIEWVRQMPGKGLEWMGDILPGSGSTNYNENFKGHVTISADKSISTAYLQWSSLKASDTAMYYCARSGYYGNSGFAYWGQGTLVTVSS
VL: DIVMTQTPLSLSVTPGQPASISCKSSQSLLSSGNQKNYLTWYLQKPGQPPQLLIYWASTRESGVPDRFSGSGSGTDFTLKISRVEAEDVGVYYCQNDYTYPLTFGQGTKLEIK
notes: complete MAb; FR4 is its own entry; also called H15/L5
With B5, the values for the dissociation constant Kd in [1], in experiment [2] and in experiment [3] were 0.55 nM, 2.24 nM and 0.55 nM, respectively. Further, the koff in experiment [3] was determined as 5.1e-05 s⁻¹. Moreover, the kon in [3] was 92200 M⁻¹ s⁻¹. The “IL-8 Induction, Ave % inhibition” value in experiment [4] was 102%. Besides, the “T½ Max (seconds), coagulation” value in experiment [5] is 197 s. Further, the “% IL-8 Inhibition” value in [6] was determined as 98.6%. Further, the “Whole Cell Binding, Ave %” value in experiment [7] stood at 124%. For the same molecule, the EC50 in [8] was found to be 0.01 µg/mL; in experiment [9], 0.0228 µg/mL.

B6: M19 (antibody, V domains shown)
VH: QVQLVQSGAEVKKPGASVKVSCKASGYTFITYWIEWVRQAPGQGLEWMGDILPGSGSTNYNENFKGRVTMTRDTSTSTVYMELSSLRSEDTAVYYCARSGYYGNSGFAYWGQGTLVTVSS
VL: DIVMTQTPLSLSVTPGQPASISCKSSQSLLSSGNQKNYLTWYLQKPGQPPQLLIYWASTRESGVPDRFSGSGSGTDFTLKISRVEAEDVGVYYCQNDYTYPLTFGQGTKLEIK
notes: complete MAb; FR4 is its own entry; also called H16/L5
For the molecule B6, the equilibrium dissociation constant (Kd) worked out at 0.41 nM in experiment [1], 2.81 nM in [2] and 0.41 nM in experiment [3]. The koff in [3] was determined as 4.1e-05 s⁻¹. Further, in [3], the kon was found to be 98800 M⁻¹ s⁻¹. Besides, the “IL-8 Induction, Ave % inhibition” value in experiment [4] is 106%. Moreover, the “T½ Max (seconds), coagulation” value in [5] was 199 s. In addition, the “% IL-8 Inhibition” value in [6] was determined as 87.3%. For the same molecule, the “Whole Cell Binding, Ave %” value in [7] came out at 111%. Moreover, the EC50 came out at 0.00922 µg/mL in experiment [8] and 0.0296 µg/mL in experiment [9].

B7: M1584 (antibody, V domains shown)
VH: EVQLVQSGAEVKKPGESLRISCKGSGYTFVTYWIEWVRQMPGKGLEWMGDILPGTGYTVYSPSFQGHVTISADKSISTAYLQWSSLKASDTAMYYCARSGYYGNSGFAYWGQGTLVTVSS
VL: DIVMTQTPLSLPVTPGEPASISCKSSQSLLSSGNQKNYLTWYLQKPGQSPQLLIYWASTRESGVPDRFSGSGSGTDFTLKISRVEAEDVGVYYCQNDYTYPLTFGQGTKLEIK
notes: complete MAb; FR4 is its own entry; also called H173/L3
On to B7, for which, in experiment [3], the Kd worked out at 0.3 nM, the koff was 5.6e-05 s⁻¹ and the kon was 184000 M⁻¹ s⁻¹. In addition, the “T½ Max (seconds), coagulation” value in experiment [5] was determined as 199 s. In experiment [10], the “IC50 (ug/ml), IL-8 induction assay” value was found to be 0.332 µg/mL.

B8: M60 (antibody, V domains shown)
VH: EVQLVQSGAEVKKPGESLRISCKGSGYTFITYWIEWVRQMPGKGLEWMGDILPGSGSTNYSPSFQGHVTISADKSISTAYLQWSSLKASDTAMYYCARSGYYGNSGFAYWGQGTLVTVSS
VL: DIVMTQSPLSLPVTPGEPASISCKSSQSLLSSGNQKNYLTWYLQKPGQSPQLLIYWASTRESGVPDRFSGSGSGTDFTLKISRVEAEDVGVYYCQNDYTYPLTFGQGTKLEIK
notes: complete MAb; FR4 is its own entry; also called H22/L4
As for B8, the Kd in experiment [1] worked out at 0.47 nM; in [2], 1.31 nM; in experiment [3] it was 0.47 nM. In addition, the “IL-8 Induction, Ave % inhibition” value in [4] was 106%. Moreover, the “T½ Max (seconds), coagulation” value in experiment [5] worked out at 180 s. In addition, in experiment [6], the “% IL-8 Inhibition” value was found to be 99.6%. The EC50 in experiment [8] came to 0.00835 µg/mL; in experiment [9], 0.0178 µg/mL.
